Measured values as given in patent US20260116937A1 (CHARACTER BIOSCIENCES, published 2026).

B1: complement factor H (CFH) (other)
chain: EDCNELPPRRNTEILTGSWSDQTYPEGTQAIYKCRPGYRSLGNVIMVCRKGEWVALNPLRKCQKRPCGHPGDTPFGTFTLTGGNVFEYGVKAVYTCNEGYQLLGEINYRECDTDGWTNDIPICEVVKCLPVTAPENGKIVSSAMEPDREYHFGQAVRFVCNSGYKIEGDEEMHCSDDGFWSKEKPKCVEISCKSPDVINGSPISQKIIYKENERFQYKCNMGYEYSERGDAVCTESGWRPLPSCEEKSCDNPYIPNGDYSPLRIKHRTGDEITYQCRNGFYPATRGNTAKCTSTGWIPAPRCTLKPCDYPDIKHGGLYHENMRRPYFPVAVGKYYSYYCDEHFETPSGSYWDHIHCTQDGWSPAVPCLRKCYFPYLENGYNQNYGRKFVQGKSIDVACHPGYALPKAQTTVTCMENGWSPTPRCIRVKTCSKSSIDIENGFISESQYTYALKEKAKYQCKLGYVTADGETSGSITCGKDGWSAQPTCIKSCDIPVFMNARTKNDFTWFKLNDTLDYECHDGYESNTGSTTGSIVCGYNGWSDLPICYERECELPKIDVHLVPDRKKDQYKVGEVLKFSCKPGFTIVGPNSVQCYHFGLSPDLPICKEQVQSCGPPPELLNGNVKEKTKEEYGHSEVVEYYCNPRFLMKGPNKIQCVDGEWTTLPVCIVEESTCGDIPELEHGWAQLSSPPYYYGDSVEFNCSESFTMIGHRSITCIHGVWTQLPQCVAIDKLKKCKSSNLIILEEHLKNKKEFDHNSNIRYRCRGKEGWIHTVCINGRWDPEVNCSMAQIQLCPPPPQIPNSHNMTTTLNYRDGEKVSVLCQENYLIQEGEEITCKDGRWQSIPLCVEKIPCSQPPQIEHGTINSSRSSQESYAHGTKLSYTCEGGFRISEENETTCYMGKWSSPPQCEGLPCKSPPEISHGVVAHMSDSYQYGEEVTYKCFEGFGIDGPAIAKCLGEKWSHPPSCIKTDCLSLPSFENAIPMGEKKDVYKAGEQVTYTCATYYKMDGASNVTCINSRWTGRPTCRDTSCVNPPTVQNAYIVSRQMSKYPSGERVRYQCRSPYEMFGDEEVMCLNGNWTEPPQCKDSTGKCGPPPPIDNGDITSFPLSVYAPASSVEYQCQNLYQLEGNKRITCRNGQWSEPPKCLHPCVISREIMENYNIALRWTAKQKLYSRTGESVEFVCKRGYRLSSRSHTLRTTCWDGKLEYPTCAKR
notes: Purified CFH used as control
B2: Factor H-like protein 1 (FHL-1) (other)
chain: EDCNELPPRRNTEILTGSWSDQTYPEGTQAIYKCRPGYRSLGNVIMVCRKGEWVALNPLRKCQKRPCGHPGDTPFGTFTLTGGNVFEYGVKAVYTCNEGYQLLGEINYRECDTDGWTNDIPICEVVKCLPVTAPENGKIVSSAMEPDREYHFGQAVRFVCNSGYKIEGDEEMHCSDDGFWSKEKPKCVEISCKSPDVINGSPISQKIIYKENERFQYKCNMGYEYSERGDAVCTESGWRPLPSCEEKSCDNPYIPNGDYSPLRIKHRTGDEITYQCRNGFYPATRGNTAKCTSTGWIPAPRCTLKPCDYPDIKHGGLYHENMRRPYFPVAVGKYYSYYCDEHFETPSGSYWDHIHCTQDGWSPAVPCLRKCYFPYLENGYNQNYGRKFVQGKSIDVACHPGYALPKAQTTVTCMENGWSPTPRCIRVSFTL
notes: Control protein, purified or as CHO culture supernatant; also called native FHL-1
B3: Var004 (engineered variant of FHL-1) (designed binder)
chain: EDCNELPPRRNTEILTGSWSDQTYPEGTQAIYKCRPGYRSLGNVIMVCRKGEWVALNPLRKCQKRPCGHPGDTPFGTFTLTGGNVFEYGVKAVYTCNEGYQLLGEINYRECDTDGWTNDIPICEVVKCLPVTAPENGKIVSSAMEPDREYHFGQAVRFVCNSGYKIEGDEEMHCSDDGFWSKEKPKCVEISCKSPDVINGSPISQKIIYKENERFQYKCNMGYEYSERGDAVCTESGWRPLPSCEEKSCDNPYIPNGDYSPLRIKHRTGDEITYQCRNGFYPATRGNTAKCTSTGWIPAPRCTLKPCDYPDIKHGGLYHENMRRPYFPVAVGKYYSYYCDEHFETPSGSYWDHIHCTQDGWSPAVPCLRKCYFPYLENGYNQNYGRKFVQGKSIDVACHPGYALPKAQTTVTCMENGWSPTPRCIRVSGGGGSGGGGSGGGGSTLKPCDYPDIKHGGLYHENMRRPYFPVAVGKYYSYYCDEHFETPSGSYWDHIHCTQDGWSPAVPCLRKCYFPYLENGYNQNYGRKFVQGKSIDVACHPGYALPKAQTTVTCMENGWSPTPRCIRVSFTL
notes: Tested as purified protein or as CHO culture supernatant; also called FHL-1 engineered variant

What follows are binders tested against T1, human C3b (human, UniProt P01024 749-1663; P01024 23-667) (assay: ELISA on C3b-coated plates, absorbance at 450 nm).
T1 construct: Coated on ELISA plates
Protocol: A representative example of an FHL-1 engineered variant (e.g., a polypeptide of SEQ ID NO: 21) was compared with CFH and FHL-1 for C3b binding activity as presented in FIGS. 14A and 14B. […] In general, the data was derived from measuring binding on C3b coated plates via ELISA for test proteins (either as purified proteins or as culture supernatants from CHO cells transfected with expression vectors encoding test proteins). C3b binding activity was measured via absorbance at 450 nm. Mean+/−SEM absorbance values are shown with nonlinear sigmoidal 4PL fit. Of note, the FHL-1 engineered variant (e.g., Var 004, SEQ ID NO: 21) has increased C3b binding activity over native FHL-1.

T1 sequence (P01024 749-1663, chain 1 of 2): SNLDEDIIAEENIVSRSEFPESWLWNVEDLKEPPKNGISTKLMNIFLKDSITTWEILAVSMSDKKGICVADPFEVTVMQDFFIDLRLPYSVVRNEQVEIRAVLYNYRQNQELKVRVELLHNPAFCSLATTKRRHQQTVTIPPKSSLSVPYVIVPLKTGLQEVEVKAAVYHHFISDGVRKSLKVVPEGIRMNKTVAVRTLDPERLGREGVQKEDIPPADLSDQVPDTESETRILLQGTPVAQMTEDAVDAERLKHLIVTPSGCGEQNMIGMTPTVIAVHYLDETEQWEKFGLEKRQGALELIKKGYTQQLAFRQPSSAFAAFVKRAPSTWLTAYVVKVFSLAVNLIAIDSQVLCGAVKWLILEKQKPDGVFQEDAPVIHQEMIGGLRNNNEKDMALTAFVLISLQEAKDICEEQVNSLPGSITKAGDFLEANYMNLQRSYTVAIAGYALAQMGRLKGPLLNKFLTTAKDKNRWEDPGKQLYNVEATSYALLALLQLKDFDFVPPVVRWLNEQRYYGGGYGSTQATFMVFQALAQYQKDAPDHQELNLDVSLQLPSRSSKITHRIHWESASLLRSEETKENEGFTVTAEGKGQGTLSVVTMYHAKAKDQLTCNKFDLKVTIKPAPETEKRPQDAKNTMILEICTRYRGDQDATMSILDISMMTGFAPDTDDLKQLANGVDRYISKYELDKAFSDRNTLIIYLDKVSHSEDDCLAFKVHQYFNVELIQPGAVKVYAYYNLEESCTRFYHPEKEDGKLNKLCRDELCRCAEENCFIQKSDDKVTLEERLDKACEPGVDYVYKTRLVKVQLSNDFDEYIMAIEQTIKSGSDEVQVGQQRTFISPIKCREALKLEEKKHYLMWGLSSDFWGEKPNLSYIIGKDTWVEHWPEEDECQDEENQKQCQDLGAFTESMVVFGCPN
T1 sequence (P01024 23-667, chain 2 of 2): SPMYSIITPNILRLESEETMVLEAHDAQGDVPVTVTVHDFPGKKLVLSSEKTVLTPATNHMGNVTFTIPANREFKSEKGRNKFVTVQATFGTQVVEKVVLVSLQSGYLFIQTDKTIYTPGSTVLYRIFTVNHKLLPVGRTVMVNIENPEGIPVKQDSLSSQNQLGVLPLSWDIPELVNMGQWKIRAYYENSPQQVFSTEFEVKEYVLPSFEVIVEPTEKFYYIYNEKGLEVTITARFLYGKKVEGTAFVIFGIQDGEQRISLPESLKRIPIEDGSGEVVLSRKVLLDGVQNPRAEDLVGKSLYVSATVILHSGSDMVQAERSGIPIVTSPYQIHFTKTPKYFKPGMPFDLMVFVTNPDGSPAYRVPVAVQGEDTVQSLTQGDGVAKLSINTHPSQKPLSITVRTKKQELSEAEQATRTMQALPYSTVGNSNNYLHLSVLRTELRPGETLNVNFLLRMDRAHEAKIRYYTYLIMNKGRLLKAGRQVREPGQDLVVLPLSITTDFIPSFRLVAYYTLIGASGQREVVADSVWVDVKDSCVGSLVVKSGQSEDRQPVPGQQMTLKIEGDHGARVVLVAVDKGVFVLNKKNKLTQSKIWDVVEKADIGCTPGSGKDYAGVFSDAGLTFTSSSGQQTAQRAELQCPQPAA

Binding result, binds:
B1
B2
B3
